Experimental data taken from article PMC10853767.

Target: NLS-GS-HIStag-GS-dCas12e-ABI (ABI domain fused directly to dCas12e)

- yEGFP activation efficiency of the ABA-sensing YES gate with ABI fused directly to dCas12e and an unchanged sgRNA, circuit 3x; the pair is bridged by the small molecule ABA: 2.79 fold
Substance: HA-PYL1-linker-VP64-NLS (PYL1 fused to VP64) (domain or fragment)
